Where two headings read alike, the source gives them in different places. One block for each binder: values may come before it.
Legend:
[1] = target: T1, BSA conjugated to SAS1B peptide A (CGGLEETPESSFLIEGDIIRPSPFRL) (conjugated to BSA); test: BLI (Octet)
T1 peptide: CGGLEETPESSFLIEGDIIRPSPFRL

[2] = target: peptide-BSA conjugate (respective antigens of the antibodies); test: biolayer interferometry (Octet), peptide-BSA conjugate
[3] = target: T1, BSA conjugated to SAS1B peptide A …; test: BLI (Octet)
[4] = target: T2, BSA conjugated to SAS1B peptide A (CGGLEETPESSFLIEGDIIRPSPFRL) (human, conjugated to BSA); test: biolayer interferometry (Octet), peptide-BSA conjugate
T2 construct: also called peptide-BSA conjugate
T2 peptide: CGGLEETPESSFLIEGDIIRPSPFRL
Experimental: Protein A-Purified antibodies were subjected to binding kinetic analysis via biolayer interferometry (Fortebio's Octet instrument) and the parameters of binding to peptide-BSA conjugate were determined (FIGS. 8 and 9). […] The dissociation constants (Kdis) from these three clones were too slow to be accurately fit (<1×10⁻⁶ sec⁻¹). With the caveat that Kdis were inaccurate due to these long residency times, KDs were calculated (FIGS. 8 and 9).

[5] = target: T2, BSA conjugated to SAS1B peptide A …; test: colorimetric ELISA, BSA-peptide A coated, anti-mouse IgG-HRP
Source text: Colorimetric ELISA data comparing binding of naked OV119 to OV119 conjugated using stochastic chemistry (OV119-WT-OM) and AJICAP site-specific conjugation (OV119-CAP-DM1). The solid phase was coated with BSA conjugated to SAS1B peptide A ([…]). Normalized concentrations of the three antibody moieties were titrated by serial 5-fold dilution. A secondary antibody specific for mouse IgG and conjugated to horse radish peroxidase was then applied. After development using TMB substrate and reaction stopping with H₂SO₄, absorbance of light at 450 nm was measured and plotted against antibody concentration (FIG. 14).

B1: monoclonal antibody OV124 (antibody, V domains shown)
VH: EVQLQESGAELMKPGASVKLSCKATGSIFNKYWIDWVRQRPGHGLEWIGEILPGSGSTIYSEKFKGKATITADTSSNTAYMQLSSLTSEDSAVYYCASRALDYWGQGTTLTVSS
VL: DVVMTQTPLSLPVSLGDQASISCRSSQSLIHSNGNTYLHWYLQKPGQSPKLLIYQVSNRFSGVPDRFSGSGSGTDFTLKISRVEAEDLGVYFCSQSTHVPYTFGGGTKLEIK
Kd [1]: 0.115 nM
koff [2]: < 1e-06 s⁻¹

B2: monoclonal antibody OV123 (antibody, V domains shown)
VH: EVQLQESGPGLVKPSQSLSLTCTVTGYSITSDNAWNWIRQFPGNKLEWMGYISYSGRTSYNPSLKSRISVTRDTSKNRFFLQLNSVTTEDTATYYCARIGSYFTMDYWGQGTSVTVSS
VL: DVVMTQTPLSLSVGLGDQASISCRSSQSLVHINGSTYLHWYLQKPGQSPKLLIYKIANRFSGVPDRFSGSGSGTDFTLKISRVEAEDLGAYFCSQSTHVPLTFGAGTKLEIK
Kd [1]: 0.284 nM
koff [2]: < 1e-06 s⁻¹

B5: OV119 conjugated using stochastic chemistry (OV119-WT-OM) (antibody, V domains shown)
VH: EVQLQESGPELVKPGASVKISCKTSGYTFTEYPMHWVKQSHGKSLEWIGGINPNNGDTTYNQRFKGKATLTVDKSSGTAYMELRSLTSEDSAVYYCVPNFDWFAYWGQGTLVTVSP
VL: DVLMTQSPLSLPVSLGDQASISCRSSQSIVHSYGNTYLEWYLQKPGQSPKLLIYKVSNRFSGVPDRFSGSGSGTDFTLRISRVEAEDLGIYYCFQGSHLPFTFGGGTKLEIK
modifications: drug conjugated by stochastic chemistry; sites and drug load not stated
notes: Stochastic conjugate of OV119
binding result [5]: binds

B6: OV119 conjugated to DM1 using AJICAP site-specific conjugation (antibody, V domains shown)
VH: EVQLQESGPELVKPGASVKISCKTSGYTFTEYPMHWVKQSHGKSLEWIGGINPNNGDTTYNQRFKGKATLTVDKSSGTAYMELRSLTSEDSAVYYCVPNFDWFAYWGQGTLVTVSP
VL: DVLMTQSPLSLPVSLGDQASISCRSSQSIVHSYGNTYLEWYLQKPGQSPKLLIYKVSNRFSGVPDRFSGSGSGTDFTLRISRVEAEDLGIYYCFQGSHLPFTFGGGTKLEIK
modifications: DM1 on the heavy chain by AJICAP site-specific conjugation via azide intermediates, 1 or 2 DM1 molecules per heavy chain (DAR 2, 3 and 4); residue not stated
notes: Antibody-drug conjugate of mouse IgG OV119; also called OV119-DM1; OV119-CAP-DM1
binding result [5]: binds

Now from value to binder:

Kd [3]: 0.532 nM
B3: monoclonal antibody OV121 (antibody, V domains shown)
VH: EVQLQESGPGLVKPSQSLSLTCTVTGYSVTSDSAWNWIRQFPGNKLEWMGYISYSGSTTYNPSLKSRISITRDTSENQFFLQLRSVTTEDTATYYCARLGNLFTMDYWGQGTSVTVSA
VL: EILLTQSPVILAASPGEKVTITCSASSSLNYMNWYQQRPGSSPKIWIYGISNLASGVPARFSGSGSGTSFSFTINSMEAEDVATYYCQQRSSFPFTFGSGTKLEIK

Kd [1]: 0.0343 nM
koff [4]: < 1e-06 s⁻¹
B4: monoclonal antibody OV119 (antibody, V domains shown)
VH: EVQLQESGPELVKPGASVKISCKTSGYTFTEYPMHWVKQSHGKSLEWIGGINPNNGDTTYNQRFKGKATLTVDKSSGTAYMELRSLTSEDSAVYYCVPNFDWFAYWGQGTLVTVSP
VL: DVLMTQSPLSLPVSLGDQASISCRSSQSIVHSYGNTYLEWYLQKPGQSPKLLIYKVSNRFSGVPDRFSGSGSGTDFTLRISRVEAEDLGIYYCFQGSHLPFTFGGGTKLEIK
notes: Mouse hybridoma monoclonal IgG; also called naked OV119 (unconjugated)

Kd [3]: < 0.001 nM
B7: monoclonal antibody OV115 (antibody, V domains shown)
VH: DVQLQESGPGLVKPSQSLSLTCTVTGYSLTSDYAWNWIRQFPGKKVEWMGYLSYSGRTSYNPSLKSRISITRDTSRNQFFLQLNSVTTEDTATYYCARMGGNFGFDYWGQGTTLTVST
VL: GIVMTQAPLSLPVSLGDQASISCRSSQSLVHINGSTYLHWYLQKPGQSPNLLIYKVSYRFSGVPDRFSGSGSGTDFTLKITRVEAEDLGVYFCSQSTHVPLTFGSGTKLEIK

— patent US20230265212A1 (OVERA, published 2023)
